T1: wild-type poliovirus type 2 capsid (Poliovirus type 2, wild type; strain …, strain)
T1 construct: also called WTPV2; wild-type PV2; copies: + + +
T1 chain 1: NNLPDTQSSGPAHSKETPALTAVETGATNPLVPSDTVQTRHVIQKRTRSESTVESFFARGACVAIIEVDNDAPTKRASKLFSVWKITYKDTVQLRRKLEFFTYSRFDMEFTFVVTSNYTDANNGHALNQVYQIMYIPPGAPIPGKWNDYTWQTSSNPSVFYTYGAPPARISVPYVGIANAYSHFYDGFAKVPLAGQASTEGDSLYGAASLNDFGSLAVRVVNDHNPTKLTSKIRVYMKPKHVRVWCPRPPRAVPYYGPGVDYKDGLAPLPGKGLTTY
T1 chain 2: not shown
T1 chain 3: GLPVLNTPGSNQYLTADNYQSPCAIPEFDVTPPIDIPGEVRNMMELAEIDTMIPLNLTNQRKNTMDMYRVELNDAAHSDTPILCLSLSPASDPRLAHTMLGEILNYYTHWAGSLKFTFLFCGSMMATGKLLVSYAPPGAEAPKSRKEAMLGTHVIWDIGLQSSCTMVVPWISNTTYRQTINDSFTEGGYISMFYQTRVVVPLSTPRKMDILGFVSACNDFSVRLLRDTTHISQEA

T2: wild-type poliovirus serotype 2 capsid (Poliovirus type 2, wild type; strain …, strain)
T2 construct: also called WTPV2; wild-type PV2; copies: + + +
T2 chain 1: T1 chain 1
T2 chain 2: not shown
T2 chain 3: T1 chain 3

B1: 9H2 fragment antigen-binding (Fab) (Fab, V domains shown)
VH: LVQSGAELKKPGASVKFSCQASGFTFTTYDIHWVRQAPGQGLEWMGMISPSRDSTIYAQKFQGRVTMTSDTSTSTVYMELTSLRSEDTALYYCATASRPSAWVFRSLYTYYYMDVWGTGTTVTVSS
VL: QSALTQPASVSGSPGQSITISCTGTITDIGYYNYVSWYQQHPGKAPKLIIFDVTNRPSGVSDRFSGSKSGNTASLTISGLQAEDEGDYYCFSHRSNNIRVFGGGTKLTVL
notes: also called 9H2 Fab; Fab 9H2
B2: 9H2 fragment antigen-binding (Fab) (Fab, V domains shown)
VH: B1 VH
VL: B1 VL
notes: also called 9H2 Fab; Fab 9H2

What was measured:
Settings in all cases: both partners purified
[1] = molecular target: T1, wild-type poliovirus type 2 capsid; experiment: cryo-EM structure
[2] = molecular target: T3, Sabin poliovirus type 1 capsid (live) (Poliovirus type 1, Sabin (live), UniProt P03301, strain, biotin (EZ-Link Micro Sulfo-NHS-Biotinylation Kit) | biotin (EZ-Link Micro Sulfo-NHS-Biotinylation Kit) | biotin (EZ-Link Micro Sulfo-NHS-Biotinylation Kit)); experiment: BLI
T3 construct: also called SPV1; Sabin serotype 1; copies: + + +

[3] = molecular target: T4, Sabin inactivated poliovirus type 2 capsid (Poliovirus type 2, Sabin strain …, strain); experiment: BLI
T4 construct: also called SIPV2; ISPV2; copies: + + +

[4] = molecular target: T2, wild-type poliovirus serotype 2 capsid; experiment: cryo-EM structure

Row | Binder | binding result [1] | Kd [2] [µM] | koff [2] [s⁻¹] | kon [2] [M⁻¹ s⁻¹] | Kd [3] [µM] | koff [3] [s⁻¹] | kon [3] [M⁻¹ s⁻¹] | binding result [4]
1 | B1 | binds | 936 | 1.05 | 1120 | 2.1 | 0.483 | 230000 | 
2 | B2 |  |  |  |  |  |  |  | binds
